Values of other authors, collected in paper PMC3521240.

Target: PTX3 (Homo sapiens) (UniProt P26022)
Sequence (P26022 18-381): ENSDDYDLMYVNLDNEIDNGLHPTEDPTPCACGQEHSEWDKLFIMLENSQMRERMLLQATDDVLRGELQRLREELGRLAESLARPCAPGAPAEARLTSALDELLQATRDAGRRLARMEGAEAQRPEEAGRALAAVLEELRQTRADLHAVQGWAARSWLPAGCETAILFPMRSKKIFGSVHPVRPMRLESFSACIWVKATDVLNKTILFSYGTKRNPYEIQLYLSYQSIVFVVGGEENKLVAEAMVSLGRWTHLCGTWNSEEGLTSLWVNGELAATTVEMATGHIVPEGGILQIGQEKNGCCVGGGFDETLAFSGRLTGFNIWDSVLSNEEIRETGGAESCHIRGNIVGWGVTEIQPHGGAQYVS

Chain of AZU1 (P20160 27-248): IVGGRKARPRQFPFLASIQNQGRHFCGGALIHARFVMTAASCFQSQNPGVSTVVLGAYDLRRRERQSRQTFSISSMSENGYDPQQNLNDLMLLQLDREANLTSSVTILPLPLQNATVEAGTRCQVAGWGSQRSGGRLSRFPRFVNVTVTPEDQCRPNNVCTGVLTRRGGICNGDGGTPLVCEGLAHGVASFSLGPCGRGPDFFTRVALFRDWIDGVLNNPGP

Kd: 0.022 µM
Substance: AZU1 (from UniProt P20160)
